The values below come from patent US9259432B1, “Composition and methods for targeted delivery of a therapeutic compound to the brain or spinal cord of a subject for treatment of neurodegenerative diseases” (Parminder J. S. Vig, priority 2011, dated 2016).

Series [1] relates to SCA1/+ mice. In words: Bar cross test. The format is in vivo. Conditions: IP, 10 doses every other day for 3 wks, with and without heat. Here is the method: A minimum of five 2 wks old SCA1/+mice were treated IP with vehicle (saline), ELP-GGC or ELP-TRTK peptides multiple times (total 10 doses) every other day for 3 wks. Some animals were subjected to hyperthermia. After completion of the treatments, animals were subjected to behavioral tests.
Bar cross test. The bar-crossing apparatus for testing balance and fine motor coordination consisted of a horizontal U-shaped platform made of wood supported on 30 cm legs. The two parallel 30-cm-long bars of the U were wide enough (18 mm) for the mice to walk easily, whereas the piece connecting them, the challenge bar, was also 30 cm long but only 2 mm wide. Animals were placed on one of the wide bars and allowed to move about on the apparatus for 5 min. After the spontaneous activity portion of the bar cross test, animal were subjected to a forced task. In this task, the mice were placed in the middle of the challenge bar in order to force a crossing attempt. A maximum of 120 sec was allowed for mice to stay on the bar, and the latency to fall (on a padded surface; height=30 cm) or cross (Cross) successfully was measured in seconds. The surface of the apparatus was cleaned with mild soap solution and air-dried between mice. […]

Series [2] is described as follows: IgG levels in plasma by ELISA. The series is classed as in vivo, mice. The following applies: 100 mg/kg, treated multiple times, no heat; samples diluted 1:50,000. The method, then: IgG levels in plasma of mice treated withof SynB1-ELP-GGC (100 mg/kg) and SynB1-ELP-TRTK (100 mg/kg) were obtained. Mice were treated multiple times without induction of hyperthermia. IgG levels were measured using ELISA. Samples were diluted 1:50,000 and compared against a standard curve generated using a mouse IgG standard.

Series [3] addresses T1, S100B (Homo sapiens, UniProt P04271).
T1 construct: purchased Sigma-Aldrich
T1 sequence (P04271 2-92 limits assumed): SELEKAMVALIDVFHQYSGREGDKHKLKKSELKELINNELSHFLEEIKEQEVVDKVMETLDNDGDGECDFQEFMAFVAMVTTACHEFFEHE
In words: Tryptophan fluorescence quenching binding studies. Here is the method: The tryptophan fluorescence of 5.0 μM Synb1-ELP-TRTK, 5.0 μM Synb1-ELP-GGC and 5.0 μM TRTK12 were measured using an Aminco Bowman Series 2 fluorescent spectrophotometer with and Excitation wavelength of 295 nm and an Emission wavelength of 350 nm in 25 mM TrisHCL and 0.1 mM CaCl2 at 12° C. (to avoid aggregation of ELP) or in a solution of containing 25 mM TrisHCL, 0.1 mM CaCl2 and 1 mM EGTA at 12° C. S100B was titrated from 100 nM up to 3.0 μM into the various peptide solutions and changes in tryptophan fluorescence were recorded into an Excel file and graphs produced. A Fluorescence % was plotted against free S100B concentration using GraphPad Prism software. A Fluorescence % was calculated as follows: [(Maximum fluorescence−Observed fluorescence)/(Maximum fluorescence−Minimum Fluorescence)]×100%. Where the maximum fluorescence is the fluorescence of 5.0 μM Synb1-ELP-TRTK or 5.0 μM TRTK12 before titration of S100B and the minimum fluorescence is the fluorescence of 5.0 μM Synb1-ELP-TRTK or 5.0 μM TRTK12 fully saturated with bound S100B. […]
Alterations in the binding affinity of a peptide due to its fusion to ELP have never been studied previously. […] Fluorescent spectroscopy is a sensitive tool used to monitor changes in the local environment of tryptophan residues that occur during a protein-ligand binding event; furthermore, changes in tryptophan fluorescence can be used to calculate binding affinity (Weljie and Vogel, 2000, Bocedi et al., 2004). Previous work has shown that S100B binding reduces tryptophan fluorescence of TRTK12 and like peptides (Ivanenkov et al., 1995). The tryptophan fluorescence of 5.0 μM Synb1-ELP-TRTK and 5.0 μM Synb1-ELP-GGC were measured using a fluorescent spectrophotometer with an Excitation wavelength of 295 nm and an Emission wavelength of 350 nm in 25 mM TrisHCL and 0.1 mM CaCl2 at 12° C. At 295 nm, tryptophan emission spectrum is dominant over the weaker tyrosine and phenylalanine fluorescence (Vivian and Callis, 2001). […] W755 has very little fluorescence at 350 nm which may be due to the 150 neighboring VPGXG repeats of ELP (FIG. 12A). […]

In general, Kd refers to the equilibrium constant for the complex coming apart. Low values mean higher affinity, high ones lower affinity.

For the substance “Synb1-ELP-TRTK: thermally responsive S100B inhibitory polypeptide: Synb1 cell penetrating peptide, elastin-like polypeptide (ELP) and TRTK12 peptide fused”, the “hyperactivity, slip frequency, Sniff Up and down frequency” value in series [1] was “suppresses these activities”. The “IgG level in plasma, OD Value” in series [2] came out at 0.2552. For the same substance, the “impact on S100B binding affinity compared to the TRTK12 peptide alone” value in series [3] is 2 fold. The substance further registered a Kd in series [3] (5.0 μM peptide, 25 mM TrisHCL, 0.1 mM CaCl2, 12° C.) of 518 ± 80 nM. Further, in series [3] (25 mM TrisHCL, 0.1 mM CaCl2 and 1 mM EGTA), the “effect of S100B titration on tryptophan fluorescence at 350 nm with calcium depleted” value is given as “no effect”.
